In doi:10.64898/2025.12.23.696152 (bioRxiv, 2025):
Several values for one entry are separate records, joined by “and”; a condition that tells them apart may be missing. Identical values can stand only once.

Tests used:
[1] = target: KIF5C(Δtail)-mScarlet-Strep-tag II (human) (UniProt O60282); test: mass photometry
[2] = target: KIF5C(ΔtailΔelbow)-mScarlet-Strep-tag II (human) (UniProt O60282); test: mass photometry
[3] = target: Taxol-stabilized microtubules polymerised from pig brain tubulin (pig) (UniProt P02550); test: TIRF single-molecule motility assay
mass photometry = target: the molecule itself; test: mass photometry

Molecule: KIF5C(Δtail)-mScarlet-Strep-tag II (from UniProt O60282 1-914) (domain or fragment)
- percent of particles as dimer [1]: 93%
- stoichiometry N [1]: 2

Molecule: KIF5C(ΔtailΔelbow)-mScarlet-Strep-tag II (from UniProt O60282 1-914) (domain or fragment)
- percent of particles as dimer [2]: 91%
- stoichiometry N [2]: 2

B1: KIF5C-mScarlet-Strep-tag II (human KIF5C, full length) (natural protein)
chain: MADPAECSIKVMCRFRPLNEAEILRGDKFIPKFKGDETVVIGQGKPYVFDRVLPPNTTQEQVYNACAKQIVKDVLEGYNGTIFAYGQTSSGKTHTMEGKLHDPQLMGIIPRIAHDIFDHIYSMDENLEFHIKVSYFEIYLDKIRDLLDVSKTNLAVHEDKNRVPYVKGCTERFVSSPEEVMDVIDEGKANRHVAVTNMNEHSSRSHSIFLINIKQENVETEKKLSGKLYLVDLAGSEKVSKTGAEGAVLDEAKNINKSLSALGNVISALAEGTKTHVPYRDSKMTRILQDSLGGNCRTTIVICCSPSVFNEAETKSTLMFGQRAKTIKNTVSVNLELTAEEWKKKYEKEKEKNKTLKNVIQHLEMELNRWRNGEAVPEDEQISAKDQKNLEPCDNTPIIDNIAPVVAGISTEEKEKYDEEISSLYRQLDDKDDEINQQSQLAEKLKQQMLDQDELLASTRRDYEKIQEELTRLQIENEAAKDEVKEVLQALEELAVNYDQKSQEVEDKTRANEQLTDELAQKTTTLTTTQRELSQLQELSNHQKKRATEILNLLLKDLGEIGGIIGTNDVKTLADVNGVIEEEFTMARLYISKMKSEVKSLVNRSKQLESAQMDSNRKMNASERELAACQLLISQHEAKIKSLTDYMQNMEQKRRQLEESQDSLSEELAKLRAQEKMHEVSFQDKEKEHLTRLQDAEEMKKALEQQMESHREAHQKQLSRLRDEIEEKQKIIDEIRDLNQKLQLEQEKLSSDYNKLKIEDQEREMKLEKLLLLNDKREQAREDLKGLEETVSRELQTLHNLRKLFVQDLTTRVKKSVELDNDDGGGSAAQKQKISFLENNLEQLTKVHKQLVRDNADLRCELPKLEKRLRATAERVKALESALKEAKENAMRDRKRYQQEVDRIKEAVRAKNMARRAHSAQIAKPIRPGHYPASSPTAVHAIRGGGGSSSNSTHYQK
- landing rate (molecules/μm/s) [3]: 0.011 and 0.0047
- stoichiometry N (mass photometry): 2 and 4

B2: KIF5C-Strep-tag II (natural protein)
chain: MADPAECSIKVMCRFRPLNEAEILRGDKFIPKFKGDETVVIGQGKPYVFDRVLPPNTTQEQVYNACAKQIVKDVLEGYNGTIFAYGQTSSGKTHTMEGKLHDPQLMGIIPRIAHDIFDHIYSMDENLEFHIKVSYFEIYLDKIRDLLDVSKTNLAVHEDKNRVPYVKGCTERFVSSPEEVMDVIDEGKANRHVAVTNMNEHSSRSHSIFLINIKQENVETEKKLSGKLYLVDLAGSEKVSKTGAEGAVLDEAKNINKSLSALGNVISALAEGTKTHVPYRDSKMTRILQDSLGGNCRTTIVICCSPSVFNEAETKSTLMFGQRAKTIKNTVSVNLELTAEEWKKKYEKEKEKNKTLKNVIQHLEMELNRWRNGEAVPEDEQISAKDQKNLEPCDNTPIIDNIAPVVAGISTEEKEKYDEEISSLYRQLDDKDDEINQQSQLAEKLKQQMLDQDELLASTRRDYEKIQEELTRLQIENEAAKDEVKEVLQALEELAVNYDQKSQEVEDKTRANEQLTDELAQKTTTLTTTQRELSQLQELSNHQKKRATEILNLLLKDLGEIGGIIGTNDVKTLADVNGVIEEEFTMARLYISKMKSEVKSLVNRSKQLESAQMDSNRKMNASERELAACQLLISQHEAKIKSLTDYMQNMEQKRRQLEESQDSLSEELAKLRAQEKMHEVSFQDKEKEHLTRLQDAEEMKKALEQQMESHREAHQKQLSRLRDEIEEKQKIIDEIRDLNQKLQLEQEKLSSDYNKLKIEDQEREMKLEKLLLLNDKREQAREDLKGLEETVSRELQTLHNLRKLFVQDLTTRVKKSVELDNDDGGGSAAQKQKISFLENNLEQLTKVHKQLVRDNADLRCELPKLEKRLRATAERVKALESALKEAKENAMRDRKRYQQEVDRIKEAVRAKNMARRAHSAQIAKPIRPGHYPASSPTAVHAIRGGGGSSSNSTHYQK
- stoichiometry N (mass photometry): 4 and 2

B3: KIF5C(Δelbow)-mScarlet-Strep-tag II (natural protein)
chain: MADPAECSIKVMCRFRPLNEAEILRGDKFIPKFKGDETVVIGQGKPYVFDRVLPPNTTQEQVYNACAKQIVKDVLEGYNGTIFAYGQTSSGKTHTMEGKLHDPQLMGIIPRIAHDIFDHIYSMDENLEFHIKVSYFEIYLDKIRDLLDVSKTNLAVHEDKNRVPYVKGCTERFVSSPEEVMDVIDEGKANRHVAVTNMNEHSSRSHSIFLINIKQENVETEKKLSGKLYLVDLAGSEKVSKTGAEGAVLDEAKNINKSLSALGNVISALAEGTKTHVPYRDSKMTRILQDSLGGNCRTTIVICCSPSVFNEAETKSTLMFGQRAKTIKNTVSVNLELTAEEWKKKYEKEKEKNKTLKNVIQHLEMELNRWRNGEAVPEDEQISAKDQKNLEPCDNTPIIDNIAPVVAGISTEEKEKYDEEISSLYRQLDDKDDEINQQSQLAEKLKQQMLDQDELLASTRRDYEKIQEELTRLQIENEAAKDEVKEVLQALEELAVNYDQKSQEVEDKTRANEQLTDELAQKTTTLTTTQRELSQLQELSNHQKKRATEILNLLLKDLGEIGGIIGTNDVKTLADVNGVIEEEFTMARLYISKMKSEVKSLVNRSKQLESAQMDSNRKMNASERELAACQLLISQHEAKIKSLTDYMQNMEQKRRQLEESQDSLSEELAKLRAQLQDAEEMKKALEQQMESHREAHQKQLSRLRDEIEEKQKIIDEIRDLNQKLQLEQEKLSSDYNKLKIEDQEREMKLEKLLLLNDKREQAREDLKGLEETVSRELQTLHNLRKLFVQDLTTRVKKSVELDNDDGGGSAAQKQKISFLENNLEQLTKVHKQLVRDNADLRCELPKLEKRLRATAERVKALESALKEAKENAMRDRKRYQQEVDRIKEAVRAKNMARRAHSAQIAKPIRPGHYPASSPTAVHAIRGGGGSSSNSTHYQK
- stoichiometry N (mass photometry): 4

B4: KIF5C(Δelbow)-Strep-tag II (natural protein)
chain: MADPAECSIKVMCRFRPLNEAEILRGDKFIPKFKGDETVVIGQGKPYVFDRVLPPNTTQEQVYNACAKQIVKDVLEGYNGTIFAYGQTSSGKTHTMEGKLHDPQLMGIIPRIAHDIFDHIYSMDENLEFHIKVSYFEIYLDKIRDLLDVSKTNLAVHEDKNRVPYVKGCTERFVSSPEEVMDVIDEGKANRHVAVTNMNEHSSRSHSIFLINIKQENVETEKKLSGKLYLVDLAGSEKVSKTGAEGAVLDEAKNINKSLSALGNVISALAEGTKTHVPYRDSKMTRILQDSLGGNCRTTIVICCSPSVFNEAETKSTLMFGQRAKTIKNTVSVNLELTAEEWKKKYEKEKEKNKTLKNVIQHLEMELNRWRNGEAVPEDEQISAKDQKNLEPCDNTPIIDNIAPVVAGISTEEKEKYDEEISSLYRQLDDKDDEINQQSQLAEKLKQQMLDQDELLASTRRDYEKIQEELTRLQIENEAAKDEVKEVLQALEELAVNYDQKSQEVEDKTRANEQLTDELAQKTTTLTTTQRELSQLQELSNHQKKRATEILNLLLKDLGEIGGIIGTNDVKTLADVNGVIEEEFTMARLYISKMKSEVKSLVNRSKQLESAQMDSNRKMNASERELAACQLLISQHEAKIKSLTDYMQNMEQKRRQLEESQDSLSEELAKLRAQLQDAEEMKKALEQQMESHREAHQKQLSRLRDEIEEKQKIIDEIRDLNQKLQLEQEKLSSDYNKLKIEDQEREMKLEKLLLLNDKREQAREDLKGLEETVSRELQTLHNLRKLFVQDLTTRVKKSVELDNDDGGGSAAQKQKISFLENNLEQLTKVHKQLVRDNADLRCELPKLEKRLRATAERVKALESALKEAKENAMRDRKRYQQEVDRIKEAVRAKNMARRAHSAQIAKPIRPGHYPASSPTAVHAIRGGGGSSSNSTHYQK
- percent of particles as dimer (mass photometry): 13%
- percent of particles as tetramer (mass photometry): 62%
- stoichiometry N (mass photometry): 2 and 4
